Assay results reported in patent US20230192796A1 (published 2023).

Molecular target: T1, Human IL-10Rβ on cells (Daudi, Jurkat, YT-1, THP-1 cell lines; primary human PBMC populations) (human, UniProt Q08334 20-325)
T1 sequence (looked up): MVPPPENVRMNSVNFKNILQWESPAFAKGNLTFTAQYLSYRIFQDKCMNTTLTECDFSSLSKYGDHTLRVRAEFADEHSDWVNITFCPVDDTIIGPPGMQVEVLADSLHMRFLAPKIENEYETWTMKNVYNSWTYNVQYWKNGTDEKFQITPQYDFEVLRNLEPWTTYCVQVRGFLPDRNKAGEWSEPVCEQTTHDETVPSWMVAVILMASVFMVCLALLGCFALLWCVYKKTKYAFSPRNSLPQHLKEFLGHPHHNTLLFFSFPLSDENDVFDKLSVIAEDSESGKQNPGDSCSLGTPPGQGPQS
Assay: cell-based or functional assay

B1: Affinity matured IL-10 clone 5.1 (Super-10), soluble (ligand)
chain: SPGQGTQSENSCTHFPGYLPNMLRDLRDAFSRVKTFFQMKDQLDNLLLKESLLEDFKGYLGCQALSEMIQFYLEEVMPQAENQDPDIKAHVQSLGENLKDLRLWLRRCHRFLPCENKSKAVEQVKNAFNKLQEKGIYKAMSEFDIFINYIEAYMTMKIRNHHHHHH
ratio of super-10 to 10-DE STAT3 Emax in Daudi cells: > 20 ratio (super-10:10-DE)
ratio of super-10 to 10-DE STAT3 Emax in THP-1 cells: ~1 ratio (super-10:10-DE)
